According to PMC6686035, “Regulation of Iron Storage by CsrA Supports Exponential Growth of Escherichia coli”:

Target: CsrA-His6 (Escherichia coli, UniProt P69913 1-61)
Test: EMSA; 10 mM Mg2+; apparent KD, cooperative equation; single shift; EMSA: 0.5 nM RNA, 10 mM MgCl2, 100 mM KCl, 32.5 ng yeast RNA, 20 mM DTT, 7.5% glycerol, 4 U SUPERasin, 37 C 30 min (pH not stated); footprint: 2 nM RNA, 10 mM Tris-HCl pH 7.5, 10 mM MgCl2, 100 mM KCl, 40 ng yeast RNA, 7.5% glycerol, 37 C
Conditions: protein: recombinant; tags: His6 (C-terminal per name); chain copies: 2; label: 5'-32P

Chain of CsrA-His6 (P69913 whole entry): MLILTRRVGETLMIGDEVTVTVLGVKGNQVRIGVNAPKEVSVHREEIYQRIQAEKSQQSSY

B1: dps EMSA transcript (ssRNA)
RNA: GGGUUAAUUACUGGGACAUAACAUCAAGAGGAUAUGAAAUUAUGAGUACCGC
Kd: 25 nM
